From paper PMC8844826

What was measured:
[1] = molecular target: full length PSD-95 (FL-PSD-95, 1-724) (human) (UniProt P78352); experiment: fluorescence polarisation; competition at pH 7.4: PSD-95 (150 nM) and fluorescent tracer, increasing NA-1; apparent
[2] = molecular target: full length PSD-95 (FL-PSD-95, 1-724) (human) (UniProt P78352); experiment: fluorescence polarisation; competition at pH 8.4: PSD-95 (150 nM) and fluorescent tracer, increasing NA-1; apparent
[3] = molecular target: full length PSD-95 (FL-PSD-95, 1-724) (human) (UniProt P78352); experiment: fluorescence polarisation; competition at pH 9.4: PSD-95 (150 nM) and fluorescent tracer, increasing NA-1; apparent
[4] = molecular target: full length PSD-95 (FL-PSD-95, 1-724) (human) (UniProt P78352); experiment: fluorescence polarisation; competition at pH 6.4: PSD-95 (150 nM) and fluorescent tracer, increasing NA-1; apparent

Sequence of full length PSD-95 (FL-PSD-95, 1-724) (human) (P78352 whole entry): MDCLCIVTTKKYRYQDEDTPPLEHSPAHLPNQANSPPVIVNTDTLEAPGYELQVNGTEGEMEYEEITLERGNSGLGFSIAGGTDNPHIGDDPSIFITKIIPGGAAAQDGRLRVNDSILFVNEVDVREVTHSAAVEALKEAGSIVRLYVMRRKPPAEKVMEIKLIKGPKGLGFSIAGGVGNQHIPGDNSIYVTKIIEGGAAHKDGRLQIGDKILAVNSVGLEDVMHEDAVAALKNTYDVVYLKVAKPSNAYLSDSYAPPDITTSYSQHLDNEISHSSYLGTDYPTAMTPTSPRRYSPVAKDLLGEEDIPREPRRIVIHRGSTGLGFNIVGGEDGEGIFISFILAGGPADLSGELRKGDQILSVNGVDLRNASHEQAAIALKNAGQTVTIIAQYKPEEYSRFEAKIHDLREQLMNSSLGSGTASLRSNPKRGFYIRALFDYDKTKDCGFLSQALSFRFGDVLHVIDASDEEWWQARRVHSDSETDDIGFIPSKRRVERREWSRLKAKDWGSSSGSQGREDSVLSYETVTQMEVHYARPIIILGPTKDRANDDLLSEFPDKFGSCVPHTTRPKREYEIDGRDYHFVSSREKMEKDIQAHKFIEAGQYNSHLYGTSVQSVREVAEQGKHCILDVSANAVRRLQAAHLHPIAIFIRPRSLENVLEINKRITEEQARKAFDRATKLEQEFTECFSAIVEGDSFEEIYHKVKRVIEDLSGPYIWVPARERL

Question: “NA-1 (nerinetide): TAT peptide fused to C-terminal residues of the GluN2B NMDAR subunit” was tested. Which Ki [1] did it give?
Answer: Its Ki is 4.5 µM.

Question: What about the Ki [2] of the same substance?
Answer: The Ki was 2.6 µM.

Question: And the Ki [3]?
Answer: Its Ki is 4.1 µM.

Question: What about the Ki [4] of the same substance?
Answer: Its Ki is 7.2 µM.
